Results from the nanobody polyreactivity screen of Harvey et al. (2022).

assay: yeast display, Sf9 membrane polyspecificity reagent, FACS + sequencing; frameworks hold sequencing errors
Outline: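 Galactose induction of a Saccharomyces cerevisiae BJ5465 synthetic nanobody display library ran 36–48 hours. The cells were then stained for 1 hour at 4 °C with 10% biotinylated, detergent-solubilized Sf9 membrane reagent, pulled down on streptavidin microbeads and FACS-sorted into low and high (top ~1%) gates on expression and reagent-binding fluorescence. Labels for polyreactivity follow the gate of origin.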

Sequence	polyreactivity (PSR sort gate)
QVQLVESGGGLVQAGGSLPLSCAASGRIFNGYAMGGYIQAPGKERELVAAICWRGGRTYYADSVKGRFTISRDNAMNTVYLQRNSLKAEDTAVYYCNKDLPPQGQLRNMYYWGQGTIVTVSS	high polyreactivity
QVQLVESGGGLVQAGGSLRLSCAASGSIFIYNAMGWYRQAPGKERELVAAISSSGGSTYYADSVKGRITISRDNAKNTVYLQMNSLKPEPTAVYYCAARTYYVRGLGGRPGMDYCGQGTQVTVSS	low polyreactivity
QVQLVESGGGLVQAGGSLRLSCPASGSIFYFYGMGWYRQAPGKEREFVAAISLYGGSTYYADSVKGRFTISRDNAKNTVYFQMNSLKPEDTAVYYCAARAWSYYHGKEDYWGQGTQVTVSS	high polyreactivity
QVQLVESGGGLVQAGGSLRLSCAASGFIYYSYTMGWYRQAPGKERELVATISSNGGRTYYADSVKGRYTISRDNAKNTVYLQMNSLKPEDTAVYYCATDVPHGYYWSYGDYYWGQRTQVTVSS	low polyreactivity
QVQLVESGGGLVQAGGSLRLSCAASGRIFVNYAMGWYRQAPGKERELVAVISRSGGGTNYADSVKGRFTISRDNAKNTVYLQMNSLKPEDTAVYYCNRVYALTYYAKYGYDYWGQGTQVTVSS	high polyreactivity
QVQLVESGRGLFQAGGSLRISCAPSGSNFGYYTMGWYRQAPGKDRELVAAITWSGGSTYYADSVKGRFTISRDNAKNTDYLQMYSLKPEDTAVYYCAADGFYYRNWGRIRYYYWGQGTQVTVSS	low polyreactivity
QVQLVESGGGLVQAGGSLRLSCAASGSIIYWYAMGWYRQAPGKERELVADISRGGITYYADSVKGRFTISRDNAKNTVYLQMNSLKPEDTAVYYCSKTHYGVQRLDSWGQGTQVTVSS	low polyreactivity
QFQLVESGGGLVQAGGSLRLSCAASGFTFAVYAMGWYRQAPWKERELVAAISRSGTRTYYADSVKGRFTISRDNAKNTVYLQMNSLKPVDTAVYYCAADKYRHGYDYWGQGTQVTVSS	low polyreactivity
QVQLVESGGGLVQAGGSLRLSCAASGITFGSYAMGWYRQAPGKERELVAAINSRGSRTYYADSVKVRFTISRDNAKNTVYLQMNSLKPEDTAVYYCAASNSHVGPNDYWGQGTQVTVSS	high polyreactivity
QVQHVESGGGLVQAGGSLRLSCAASGLTFHQYAMGWYRQAPGKERELVAAITGSGGSTYYADSVKGRVTISRDKAKNTVYLQMYSLKPEDTAVYYCAAKTYRRGGGYWGQGSQVTVSS	high polyreactivity
QVQLVESGGGLVQAGGSLRLSCVASGFIFRRNAMGWYRQAPGKERELVATISSGGNTYYADSVKGRFTISRDNAKNTVYLQMNSLKPVDTAVYYCIASDGLPSKLNVYVEFDYWGQCTQVTVSS	low polyreactivity
QVQLVESGGGLVQAGGSLRLSCAASGFTFYTYVKGWYRQAPGKERELVAAITSGVSTNYADSVKGRFTISRDNAKNTVYLQMNSVKPEDTAVYYFNKTFLFLEYDSWGQGTQVTVSS	low polyreactivity
QVQLVESGGGLVQAGGSLRLSCAASGIIFGHYDMGWYRQAPGKERELVAAITFTGDSTYYADSVKGRFTISRDKAKNTVYLQMTSLKPEDTAVYYCAAETPVPWGSWGYDYWGQGTQVTVSS	low polyreactivity
QVQLVESGGGLVQAGGSLRLSCAASGFTFDFYAMGWYRQAPGKERELVATISYSGASTYYADSVKGRFTISRDNAKNTIYLQLNSLKPEDTAVYYCNAESSYYYGTAAYEYWGQGTQVTVSS	low polyreactivity
QVQLVESGGGLVQAGGSLRLSCAASGRTFYRNAMGWYRQAPGKERELVAAISWRGGSTFYADSVKGRFTISRDNAKNTVYLQMNSLKPEDTAVYYCNAGSNSFSRVEYWGQGTQVTVSS	low polyreactivity
QVQLVESGGGLVQAGGSLRLSCAASGSTFYINAMGWYRQAPGKEREFVAAITSRGGSTYYADSVKGRFTISRDNAKNTVYLQMNSLKPEDTAVYYCAARNFLSRRGTYDYWGQGTQVTVSS	high polyreactivity
QVQLVESGGGLVQAGGSLRLSCAASGIIIGSNAMGWYRQAPGKERELVAAISDSGGSTYYADSVKGRFTISRDNAKNTVYLQMNSLKPEDTAVYYCAAAGRGSWTTYRFDYWGQGTQVTVSS	high polyreactivity
QVQLVESGGGLVQAGGRLRLSCAASGFIIVYYAAMGWYRQAPGKERELVAAISSRDDSTTYADSVKGRFTISRDNAKNTVYLQMNSLKPEDTAVYYCNADLGGFYYVYAYNYWGQGTQVTVSS	low polyreactivity
QVQLVESGGGLVQAGGSLRLSCAGSGFIFHLYAMGWYRPAPGKERELVAAIRISDGSTYYADSVKGRFTISRDNAKNTVYLLMNSLKPEDTAVYYCNRVRSSYVYVSRFDYWGQGTQVTVSS	high polyreactivity
QVQLVESGGGLVQAGGSLRLSCAASGIIFGRYAMGWYRQAPGKERELVAAITRGGSTKYADSVKGRFTISRDNAKNTVYLQMNSLKPEDTAVYYCARVRRYPLRYNYWGQGTQVTVSS	high polyreactivity
QVQLVESGGGLVQAGGSLRLSCAASGRTFYLYAMGWYRQAPGKERELVAAITWRGGSTYYADSVKGRFTISRDNAKNTVYLQMNSLKPEDTAVYYCSAVTFFYYSAVRYEYYYWGQGTQVTVSS	high polyreactivity
QVQLVESGGGLVQAGGSLRLSCAASGTFNYYAMGWYRQAPGKERELVAAISNGDSTTYADSVKGRFTISRDNAKNTVYLQMNSLKPEDTAVYYCAAYRYTPRTSRGYYYWGQGTQVTVSS	low polyreactivity

Sequence	polyreactivity (PSR sort gate)
QVQLVESGGGLVQAGGSLRLSCAASGRTFSYYTMGWYRQAPGKERELVARISNRGTNTYYADSVKGRFTISRDNAKNTVYLQMNSLKPEDTAVYYCNTEDFFNVPEMDSWGQGTQVTVSS	low polyreactivity
QVQLVESGGGLVQAGGSLRLSCAASGSIFPDYAMGWYRQAPGKERELVAAITWRDDSTYYADSVKGRFTISRDNAKNTVYLQMNSLKPEDTAVYYCNASALDPLFAKDDYWGQGTQVTVSS	low polyreactivity
QVQLVESGGGLVQAGGSLRLSCAASGSTFYYYTMGWYRQAPGKERELVARITRSGGTTYYADSVKGRFTISRDNAKNTVYLQMNSLKPEDTAVYYCAARRYGYTSITWYDYWGQGTLVTVSS	high polyreactivity
QVQLVESGGGLVQAGGSLRLSCAASVSIFIANVMGWYRQAPGKERELVAAITRTSSTYYADSVKGRFTISRDNAKNTVYLQMNSLKPEDTAVYYCAKLYGVVGRWYRSSYGYWGQGTQVTVSS	high polyreactivity
QVQLVESGGGLVQAGGSLRLSCADSGRTFRYYAMGWYRQAPGKERELVAAITSGGSTYYADSVKGRFTISRDNAKNTVYLQMNSLKPEDTAVYYCAAARYEPFIYDYGYWGQGTQVTVSS	low polyreactivity
QFQLVESGGGVVQAPGSLRLSSAASGSLFTVYAMGWYRQAPGKERELVAAISYGGGSTYYADSVKGRFTISRDTAKNTVYLQMNSLKQEDTAVYYCAADPYYSYGYYHAHGRDVGYWGQGTQVTVSS	low polyreactivity
QVQHVESGGGLVQAGGSLRLSCAASGRTFSYYTMGWYRQAPGKERELVARISNRGTNTYYADSVKGRFTISRDNAKYTVYLQMNSLKPEDYAVYYCAKYYYTSIVGYDSWGQGTQVTVSS	low polyreactivity
QVQLVESGGGLVQAGGSLRLSCAASGIIFPRNAMGWYRQAPWKERELVAGISRSGGSTSYADSVKGRFTFSRDNAKNTVYLQMNSLKPEDTAVFYCASRGHPFKKSYGSWGQGTQVTVSS	high polyreactivity
QVQLVESGGGLVQAGGSLRLSCADSGFILWYNAMGWYRQAPGKERELVARIDVRGGSTYYADSVKGRFTISRDNAKNTVYLQMNSLKPEDTAVYYCARKRQGPASRARYDYWGQGTQVTVSS	low polyreactivity
QVQLVESGGGIVQSGGSLRLICAASGGIFKYNAMGWYRQAPGKERELVAAINYSGGRTYYADSVKGRFTISRDNAKNTVYLQMNSLKPEDTAVYYCNALTRGHTGQPYTYDYWGQGTQVTVSS	high polyreactivity
QVQLVESGGGLVQAGGSLRLSCAASGSIFVYYTMGWYRQSPGKEREMVAAITYSGGSKYYADSVKGRFTISRDNAKNTVYLQMNRLKPEDTAVYYCNAKSAAHRYVRRHDYWGQGTQVTVSW	low polyreactivity
QVQLVESGGGLVQAGGSLRLSCAASGSTFYYNAMGWYRQAPGKERELVAAITFTGGSTYADSVKGRFTISRDNAKNTVYLQMNSLKPEDTAVFYCAATIQGHDYLGTGYDYWGQGTQVTVSS	low polyreactivity
QVQLVESGGGLVHAGGSLRLSCAASGRTFAQNAMRRYRQAPWKERELVAAIRNGGRTNYADSVKGLFTISRDNAKNTVYLQMNSLKPEDTAVYYCAVKFNNRAKYGYWGQGTQVTVSS	high polyreactivity
QVQLVESGGGLVQAGGSLRLSCPASGFIINVYVMGWYRQAPGKERELVAAISGGGSTYYADSVKGRFTISRDNAKNTVSLQMNSLKPEDTAVYYCAAVYYYQNEGYDFWGQGTQVTVSS	low polyreactivity
QVQLEESGGGLVQAGGSLRLSCAASGSTFTLNAMGWYRQAPGKERELVADISWSSGRTYYADSVKGRFTISRDNAKNTVYLQMNSLKPEDTAVYYCATDDFWNVKFYAYYPEFDYWGQGTQVTVSS	low polyreactivity
QVQLVDSGGGLVQAGGSLRLSCAASGFIFKRYAMGWYRQAPGKERELVAAINGGGSSTYYADSVKGRFTISRDNAKNTVYLQMNSLKPDDTAVYYCAADTDSWWYYLYYGEGFDYWGQGTQVTVSS	high polyreactivity
QVQLVESGGGLVQAGGSLRLSCAASGRTFRYNTMGWYRQAPGKERELVAAITKGAASTYYADSVKGRFTISRDNAKNTVYLQMNSLKPEDTAVYYCNAVYSRIVTQKYWGQGTQVTVSS	high polyreactivity
QVQLVESGGGLVQAGGSLRLSCAASGSIFYINDAMGWYRQPPGKERELVAAISSSDGTTYYADSVKGRFTISRDNAKNTVYLQMNSLKPEDTAGYYCAAETRAVGYDGDYWGQGTQVTVSS	high polyreactivity
QVQLVESGGGLVQAGGSLRISCAASGRIFKYYGMGWYRQAPGKERELVAAITRGDSTNYADSVKGRFTISRDNAKNTVYLQMNSLKPEETAVYYCNVGTRRGYDYWGQGTQVTVSS	high polyreactivity
QVHLVESGGGLVQAGVSLRLSCAASGFTFYRNAMGWYRQAPGKERELVAAISSRGGSTYYADSVKGRFTISRYNANNTVYFQMNSLKPEDTAVYYCAAYGNYNEYDYWGPGTQVTVSS	high polyreactivity
HVQLVESGGGLVQAGGSLRLSCAACGSTFRRYTMGWYIQAPGKDRELVAAITWSGGSTYYADSVKGRFTISRDNAKNTVYLQMNSLKPEDTAVYYCAADRPYHTREYYYWGQGSQVTVSS	low polyreactivity
